# Patent publication US20220332804A1 (CSL INNOVATION, published 2022)
# Changes are numbered by the printed parent chain.
# T1: human C2 A444S (human, UniProt P06681 21-752)
# T1 sequence: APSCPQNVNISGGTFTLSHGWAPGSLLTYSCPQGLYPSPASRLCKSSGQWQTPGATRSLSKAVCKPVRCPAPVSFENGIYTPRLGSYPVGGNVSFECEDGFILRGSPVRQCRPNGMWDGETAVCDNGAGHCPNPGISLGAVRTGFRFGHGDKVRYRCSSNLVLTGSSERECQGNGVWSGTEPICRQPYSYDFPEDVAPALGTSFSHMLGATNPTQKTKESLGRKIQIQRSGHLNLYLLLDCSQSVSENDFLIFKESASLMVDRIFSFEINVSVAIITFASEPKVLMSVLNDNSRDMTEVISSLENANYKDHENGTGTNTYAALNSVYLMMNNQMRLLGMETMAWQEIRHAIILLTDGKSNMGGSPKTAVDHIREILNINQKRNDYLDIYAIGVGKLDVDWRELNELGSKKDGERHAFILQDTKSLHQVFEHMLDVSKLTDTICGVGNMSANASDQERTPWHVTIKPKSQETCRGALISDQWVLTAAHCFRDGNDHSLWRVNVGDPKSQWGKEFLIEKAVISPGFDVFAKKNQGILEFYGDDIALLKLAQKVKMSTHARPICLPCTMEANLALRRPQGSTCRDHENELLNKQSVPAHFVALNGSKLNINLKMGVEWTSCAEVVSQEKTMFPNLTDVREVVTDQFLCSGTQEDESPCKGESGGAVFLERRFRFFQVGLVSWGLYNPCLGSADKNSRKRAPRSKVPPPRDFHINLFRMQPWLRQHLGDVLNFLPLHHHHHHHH
# T2: human C2 S278A (human, UniProt P06681 21-752)
# T2 sequence: T1 sequence with S258A, S424A
# T3: human C2 D441A (human, UniProt P06681 21-752)
# T3 sequence: T1 sequence with D421A, S424A
# T4: human C2 T442A (human, UniProt P06681 21-752)
# T4 sequence: T1 sequence with T422A, S424A
# B1: RF16-242 (antibody, human IgG4 S228P, lambda, V domains shown)
# VH: EVQLLQSGAEVKKPGESLKISCKGSGYSFTSYWIGWVRQMPGKGLEWMGIIYPGDSDTRYSPSFQGQVTISADKSISTAYLQWSSLKASDTAMYYCARRGHYGDYFDYWGQGTLVTVSS
# VL: SYELTQPPSVSVSPGQTARITCSGDALPKKYAYWYHQKSGQAPVLVIYEDRRRPSEIPERFSGSSSGTMATLTITGAQVEDEGVYFCYSRDRAGNQRVFGGGTQLTVLG
# notes: pH-dependent anti-C2 antibody from a phage display library
# Legend:
# Experiment in all cases: SPR, KD relative to WT C2;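 further: biacore SPR at 37 °C, anti-C2 mAbs captured on anti-human IgG chips with alanine or serine point mutants of C2 as analyte, KD from 1:1 fit compared with wild-type C2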
# [1] = target: T1, human C2 A444S
# [2] = target: T2, human C2 S278A
# [3] = target: T3, human C2 D441A
# [4] = target: T4, human C2 T442A
binder,measurement,setting,value
B1,Fold diff,[1],3 fold
same,Fold diff,[2],1 fold
same,Fold diff,[3],16 fold
same,Fold diff,[4],3 fold
